From patent US20230332166A1, “FORMATE-INDUCIBLE PROMOTERS AND METHODS OF USE THEREOF” (Imperial College Innovations Ltd, priority 2020, published 2023)

B1: Yali0F15983: putative Y. lipolytica FDH gene; promoter region SEQ ID NO: 3 (1 Kb) and 19 (1.5 Kb) (nucleic acid, listed as Yarrowia lipolytica)
DNA: ATGAAGGTCCTTCTTATTCTCTACTCTGCCGGTTCTCACGCCGTTGACGAGCCCAAGCTACTCGGTTGCACTGAGAACGAGCTCGGTCTCCGAAAGTGGCTCGAGTCCCGGGGCCACACGCTTGTGACCACCTCTTCAAAGGAGGGAGCCGACTCTGTGCTCGACAAGGAGATTGTCGATGCCGACATTGTCATCACTACTCCCTTCCACCCCGGTTACATCACCCGAGAGCGAATCGCCAAGGCCAAGAACCTCAAAATTTGCATCACTGCCGGTGTTGGTTCGGACCACGTCGATCTTGATGCTGCCAACGAGCGAGATATTGCCGTTCTCGAGGTCACTGGCTCCAACGTGCAGTCTGTGGCTGAGCACGTTGTCATGACCATGCTGGTCCTGGTCCGAAACTTTGTGCCTGCCCACGAGCAGGTCATGGCTGGTGGCTGGGACGTTGCTGCTGTCGCCAAGGACTCCTACGACATTGAGGGAAAGGTCATTGGTACTGTGGGAGGTGGCCGAATTGGTCAGCGAGTCCTAAAGCGAGTTGCTCCCTTCAACCCTAAGGAGATGCTCTACTACGACTACCAGGGTCTGTCTGCTGAGACCGAGAAGGAGCTGAACTGCCGACGAGTCGAGAAGCTCGAGGATATGCTTGCCCAGTGTGATATCGTCACCATCAACTGTCCCCTCCACGAGTCCACCAAGGGTCTCTTCAACAAGGAGATGCTCTCTCACATGAAGAAAGGTGCCTGGCTTGTCAACACCGCTCGAGGAGCCATCTGTGTCAAGGAAGACGTTGCTGAGGCTCTCAAGAACGGCCAGCTGCGAGGCTACGGAGGTGACGTCTGGTTCCCCCAGCCTGCTCCCGCTGACCACCCCTGGAGATCCATGCGAAACAAGTACGGAGCTGGAAACGCCATGACCCCCCATATCTCCGGTACTTGCATCGATGCCCAGGTTCGGTACGCCCAGGGAACCAAGAACATTCTCGACATGTTCTTCTCCGGTAAGCAGGACTACCGACCCCAGGACATCATCTGCATCAACGGTCACTACGGAACCAAGGCCTACGGTGATGACAAGGAGCATGCTAAAAAGTAGGCTGGACGTCGAAATAAACACATTGTTCATCTCTGGGTAGCCCAATAGTAAATAGGTAAGCTGTGATCATTA
modifications: YALI0F15983g
B2: Yali0F28765: putative Y. lipolytica FDH gene; its formate-inducible promoter region is SEQ ID NO: 11 (1 Kb) and 27 (1.5 Kb) (nucleic acid, listed as Yarrowia lipolytica)
DNA: ATGAAGGTCCTTCTCATTCTCTACGACGCCGGCTCCCACGCTGTTGATGAGCCCAAACTACTCGGATGCACCGAGAACGAGCTCGGTATCCGATCATGGCTCGAGTCCCAGGGCCATACTCTGGTAACCACCTCTTCCAAGGATGGCGATGACTCTGTCCTCGACAAGGAAATTGTCGACGCCGATGTCGTCATCACCACTCCCTTCCATCCCGGTTACATTACCCGAGAGCGAATTGCCAAGGCCAAGAACCTCAAAATATGTGTTACTGCAGGTGTTGGTTCCGACCATGTCGACCTTGATGCCGCCAACGAGCGAGACATTGCCGTTCTCGAGGTCACTGGTTCCAACGTCCAATCCGTCGCTGAGCACGTCGTCATGACCATGCTCGTCCTCGTCCGAAACTTTGTCCCCGCTCACGAGCAGGTCATGGCTGGTGGTTGGGATGTTGCTGCTGTCGCCAAGGACTCTTATGACATCGAGGGTAAGGTCATTGGTACCGTTGGTGGTGGCCGAATTGGTCAGCGAGTCCTCAAGCGAGTGGCTCCCTTCAACCCTAAGGAGATGCTCTACTACGACTACCAAGGACTTTCTGCTGAGACCGAGCAGGAGCTCAACTGTCGACGAGTCGAGAAGCTTGAAGATATGCTTGCCCAATGTGACATTGTCACCATTAACTGTCCTCTCCACGAGTCTACCAAGGGCCTCTTCAACAAGGAGATGCTCTCTCACATGAAGAAGGGTGCTTGGCTTGTCAACACCGCTCGAGGAGCTATCTGTGTCAAGGAGGATGTCGCCGAGGCTCTTGCCAACGGCCAGCTTCGAGGCTACGGTGGTGATGTGTGGTTCCCTCAGCCAGCCCCTGCCGACCACCCTTGGAGATCGATGCGAAACAAGTACGGCGCCGGTAACGCTATGACCCCACACATATCTGGTACTTCCATTGACGCCCAGGCCCGATACGCCGAGGGCACCAAGAACATTCTCGAGGTCTTCTTCTCCGGAAAGCAGGACTACCGACCCCAGGATATCATCTGTATCAACGGTCACTACGGTACCAAGGCTTACGGCGACGACAAGGAGCACGCCAAGAAATAGATAATATTCATTAACATACAAATACAGTCTACAGTCCTATATCGATTCGGTCGCTTCGAG
modifications: YALI0F28765g
B3: Yali0C14344: putative Y. lipolytica FDH gene; promoter region SEQ ID NO: 7 (1 Kb) and 23 (1.5 Kb) (nucleic acid, listed as Yarrowia lipolytica)
DNA: ATGAAGGTCCTTCTTGTTCTATACGATGCCGGCTCCCACGCCAAGGATGAGCCAAAGCTACTTGGATGCACCGAGAACGAGCTCGGAATCAGAGACTGGCTCGAGTCACAGGGCCACACTCTTGTCACCACCTCTTCCAAGGACGGTGCCCACTCTGTGCTTGACAAGGAGATTGTCGATGCCGATGTAGTCATCACCACCCCTTTCCACCCCGGCTACATCAACAAGGAGCGAATTGACAAGGCCAAAAAGCTCAAGATCTGCATCACCGCTGGTGTTGGCTCCGACCACGTCGATCTCGACGCAGCCAACGCCCGAGATATCTCTGTTCTTGAGGTTACTGGTTCTAATGTCCAGTCTGTCGCAGAGCACGTCGTTATGACCATGCTGGTGCTGGTCCGAAACTTTGTGCCCGCCCACGAGCAGATCATCGAGGGCGGCTGGAATGTGGCTGCTGTCGCCAAGGACTCGTACGATCTCGAGGGAAAGGTCATTGGCACCGTTGGAGGCGGTCGAATCGGCCAGCGAGTGCTCAAGCGATGCAAGCCCTTTGACCCCATGGAGATGCTCTACTACGACTACCAGGCTATGCCAGCTGATGTGGAGAAGGAGATTGGATGCCGACGAGTCGAGTCTCTGGAGGAGAAGCTCTCTCTCTGTGACGTTGTCACCATCAACTGTCCCCTTCACGCCTCCACCAAGGGTCTCTTCAACAAGGAGCTCATTTCCCACATGAAGGACGGCGCTTGGCTCGTCAACACTGCTCGAGGAGCCATCTGCGTCACCGAGGACATTGTCGACGCTCTCGAGTTGGGCAAGATCCGAGGATATGGCGGTGACGTCTGGTTCCCCCAGCCTGCCTCCAAGGACCACCCCTGGAGAACCATGCGAAATAAGTACGGCGGTGGAAACGCCATGACTCCCCACATCTCCGGCACTTCCATCGACGCCCAGGGCCGATACGCTGAGGGTACCAAGAAGATCCTCGAGGTCTTTTTCTCGGGAAAGCAGAATTACAGACCCCAGGATATCATCTGTATCAACGGCCATTATGGTACAAAGGCCTACGGTGACGACAAGGAGCACAAGGGGCACCAGCAGAAGTGA
modifications: YALI0C14344g
B4: Yali0E14256: Y. lipolytica FDH gene; promoter region SEQ ID NO: 8 (1 Kb) and 24 (1.5 Kb) (nucleic acid, listed as Yarrowia lipolytica)
DNA: ATGAAGATCCTTCTTGTTCTCTACGACGCCGGTTCCCACGCCAAGGATGAGCCTCGACTTCTCGGATGTACCGAGAACGAGCTTGGTCTCCGTGACTGGATCGAGTCCCAGGGACACACCTTGGTGACCACCTCCGACAAGGACGGTGAGAACTCAACCGTCGACAAGGAGATTGTGGATGCTGAGATTGTTATCACCACCCCCTTCCACCCCGCTTACATCACCAAGGAGCGAATTGACAAGGCCAAGAAGCTCAAGATCTGTATCACTGCCGGTGTTGGTTCCGACCATGTCGACCTTGATGCCGCCAACGCCCGAGACATTGCCGTCCTCGAGGTTACCGGATCTAACGTCCAGTCCGTCGCTGAGCACGTTGTCATGACCATGCTGGTTCTGGTCCGAAACTTCGTCCCCGCCCACGAGCAGATCATCGAGGGTGGCTGGAATGTCGCTGCTGTCGCCAAGGACTCTTACGACATTGAGGGTAAGGTCATTGGTACTGTCGGCGGTGGCCGAATTGGTCAGCGAGTCCTGAAGCGACTTGCACCCTTCAACCCCATGGAGCTCCTCTACTACGACTACCAGCCCATGCCCAAGGACGTGGAGAAGGAGATTGGCTGCCGACACGTCCCTGATCTTAAGGAGATGCTCTCTGTCTGTGACATTGTTACCATCAACTGTCCTCTCCACGACTCTACCAAGGGTATGTTCAACAAGGAACTCATCTCCCACATGAAGGATGGTGCTTGGCTCGTCAACACCGCCCGAGGTGCCATCTGTGTCACTGACGACATTGTTGAGGCCCTCAAGTCCGGTAAGATCCGAGGCTACGGTGGTGATGTCTGGAACCCCCAGCCTGCCCCCAAGGACCACCCCTGGAGATACATGCGAAACAAGTGGGGCGGTGGAAACGCCATGACCCCCCATATCTCCGGTACCTCCATCGATGCCCAGGGCCGATACTCCGAGGGTACCAAGAACATTCTCGAGGTCTACTTCTCCGGAAAGCAGAACTACCGACCTCAGGATGTCATCTGTATCAACGGCCACTACGGCACTAAGGCTTACGGTGACGACAAGGAGCACAAGGCCCACGTTTCCAAATAAGCACTTTAGCTGTTTAACTTATAAGCAATTGACTACTAGAATTTGC
modifications: YALI0E14256g

tested on: Y. lipolytica JMY2900; assay: qPCR of putative FDH gene transcription upon induction with sodium formate; format: cell-based, Yarrowia lipolytica; details: YNB with 0.5% sodium formate, 6 h, 28° C., vs absence of formate; qPCR normalised to actin
Protocol: FIG. 3: Transcription levels of the FDH genes of Yarrowia lipolytica W29 measured by qPCR, normalised to actin (ACT1) expression. Yarrowia lipolytica was grown in YNB supplemented with 1% glucose and 0.5% yeast extract at 15 h at 28° C., before being washed and transferred into YNB with 0.5% of sodium formate for induction and grown for 6 h.
The inducibility of the putative FDH genes with formate was then tested by qPCR. YALI0E14256g1_1 and the nine putative FDH with the highest % identity to YALI0E14256g1_1 were selected for testing. Y. lipolytica JMY2900 was cultured in YNB media supplemented with 1% glucose and 0.5% yeast extract for 15 h at 28° C. Cells were washed with distilled water and cultured in fresh liquid YNB media supplemented with 0.5% sodium formate at 28° C. with agitation at 160 rpm, before being harvested at 6 h post-inoculated. Cells were frozen in liquid nitrogen and stored at −80° C. RNA was subsequently extracted using the RNeasy Mini Kit (Qiagen), and 2 μg was treated with DNAse (Ambion; Life Science Technologies, Saint-Aubain, France). cDNA was synthesised using the Maxima First Strand cDNA synthesis kit (Thermo Fischer Scientific, Villebon sur Yvette, France). qPCR was then performed using the SYBRgreen mastermix (Thermo Fischer Scientific) with gene-specific primers designed using Primer3 software. Relative expression levels were calculated using ΔCT and ΔΔCT methods. Expression levels were normalised to actin.

Row | Molecule | Fold increase on induction (fold change expression of putative FDH genes upon induction with sodium formate) [fold]
1 | B1 | 4.2
2 | B2 | 8.1
3 | B3 | 4.9
4 | B4 | 23.9
